Measured values reported in patent US20170015742A1 (published 2017).

How the values were obtained:
Human VEGF-A 165 = target: T1, Human VEGF-A 165 (human, UniProt P15692 207-395); test: SPR (Biacore), method of Example 1.1
T1 construct: also called hVEGF165
Protocol: (§1) Unreacted moieties on the biosensor surface were blocked with ethanolamine. For kinetic analysis, rate equations derived from the 1:1 Langmuir binding model were fitted simultaneously to multiple antigen injections (using global fit analysis) with the use of Scrubber 2 (BioLogic Software), Biacore Biaevaluation 4.0.1 software or Biacore T100 Evaluation software. Purified antibodies or DVD-Ig molecules were diluted in running buffer for capture across goat anti-human Fc reaction surfaces. Antibodies or DVD-Ig molecules to be captured as a ligand (1 μg/ml) were injected over reaction matrices at a flow rate of 10 μl/minute. During the assay, all measurements were referenced against the capture surface alone (i.e., with no captured antibody or DVD-Ig molecule). […] The equilibrium dissociation constant KD (M) of the reaction between antibodies and the target antigen was then calculated from the kinetic rate constants by the following formula: KD=Koff/Kₒₙ. Binding was recorded as a function of time and kinetic rate constants were calculated. In this assay, on-rates as fast as 10⁶M⁻¹s⁻¹ and off-rates as slow as 10⁻⁶ s⁻¹ could be measured.

Human PDGF-BB = target: T2, Human PDGF-BB (human, UniProt P01127 82-190); test: SPR (Biacore), method of Example 1.1
T2 construct: also called hPDGF-BB
T2 sequence (P01127 82-190 limits assumed): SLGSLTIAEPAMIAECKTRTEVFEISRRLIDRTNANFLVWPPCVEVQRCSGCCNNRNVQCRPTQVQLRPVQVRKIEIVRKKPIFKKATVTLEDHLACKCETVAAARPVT
Protocol: as §1

VEGF-A = VEGF-A (UniProt P15692-4 27-191, limits assumed); test: SPR (Biacore), DVD-Ig captured by anti-human Fc, antigen in flow
VEGF-A, sequence (P15692 other isoform, or with tags, fused parts or gaps limits assumed): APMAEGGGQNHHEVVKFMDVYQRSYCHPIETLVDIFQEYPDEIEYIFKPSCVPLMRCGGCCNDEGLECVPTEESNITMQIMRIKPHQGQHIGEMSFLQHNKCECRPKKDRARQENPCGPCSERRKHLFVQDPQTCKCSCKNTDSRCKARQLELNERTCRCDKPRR
Protocol: as §1, with “For example, approximately 9000 RU of goat anti-human Fc specific polyclonal antibody (Thermo Fisher Scientific Inc., Rockford, Ill.) diluted in 10 mM sodium acetate (pH 4.5) is directly immobilized across a CM5 research grade biosensor chip using a standard amine coupling kit according to manufacturer's instructions and procedures at 25 μg/ml. Unreacted” for “Unreacted”, “calculated.” for “calculated. In this assay, on-rates as fast as 10⁶M⁻¹s⁻¹ and off-rates as slow as 10⁻⁶ s⁻¹ could be measured.”

PDGF-BB = PDGF-BB (UniProt P01127 82-190); test: as above
PDGF-BB, sequence (P01127 82-190): as the sequence (P01127 82-190 limits assumed) above
Protocol: as §1, with “For example, approximately 9000 RU of goat anti-human Fc specific polyclonal antibody (Thermo Fisher Scientific Inc., Rockford, Ill.) diluted in 10 mM sodium acetate (pH 4.5) is directly immobilized across a CM5 research grade biosensor chip using a standard amine coupling kit according to manufacturer's instructions and procedures at 25 μg/ml. Unreacted” for “Unreacted”, “calculated.” for “calculated. In this assay, on-rates as fast as 10⁶M⁻¹s⁻¹ and off-rates as slow as 10⁻⁶ s⁻¹ could be measured.”

T1 sequence (P15692 other isoform, or with tags, fused parts or gaps limits assumed): as the sequence (P15692 other isoform, or with tags, fused parts or gaps limits assumed) above

Row | binding result (Human VEGF-A 165) | Kd (Human PDGF-BB) [nM] | kon (Human PDGF-BB) [M⁻¹ s⁻¹] | Kd (VEGF-A) [nM] | kon (VEGF-A) [M⁻¹ s⁻¹] | Kd (PDGF-BB) [nM] | kon (PDGF-BB) [M⁻¹ s⁻¹] | Kd (Human VEGF-A 165) [nM] | Binder
1 | no binding | 0.011 | 2.3e+07 | – | – | – | – | – | CODV003 (bispecific antibody, human IgG1, kappa, L234A L235A, Anti-human VEGF-A/anti-human PDGF-BB cross-over DVD-Ig (CO-DVD-Ig); also called PR-1565044) heavy: not shown light: DFQLTQSPSSLSASVGDRVTITCERSSGDIGDSYVSWYQQKPGKAPKNVIYADDQRPSGVPSRFSGSGSGNSASLTISSLQPEDFATYFCQSYDINIDIVFGQGTKVEIKGGGSGGGDIQMTQSPSSLSASVGDRVTITCSASQDISNYLNWYQQKPGKAPKVLIYFTSSLHSGVPSRFSGSGSGTDFTLTISSLQPEDFATYYCQQYSTVPWTFGQGTKVEIKGGGSGRTVAAPSVFIFPPSDEQLKSGTASVVCLLNNFYPREAKVQWKVDNALQSGNSQESVTEQDSKDSTYSLSSTLTLSKADYEKHKVYACEVTHQGLSSPVTKSFNRGEC
2 | – | – | – | 0.012 | 6.3e+06 | 0.013 | 1.4e+07 | – | 4G8.3-GS(11)-9E8.4 (g) (PR-1572103) (bispecific antibody, human IgG1, kappa, L234A L235A, DVD-Ig; outer hBDB-4G8.3 (VEGF), linkers GS-H10/GS-L11, inner hBDI-9E8.4 (PDGF); human IgG1 L234A, L235A, H435A / kappa) heavy: EVQLVQSGSELKKPGASVKVSCKASGYTFTNYGMYWVRQAPGQGLEWMGWINTETGKPTYADDFKGRFVFSLDTSVSTAYLQISSLKAEDTAVYYCARTNYYYRSYIFYFDYWGQGTMVTVSSGGGGSGGGGSEVTLRESGPALVKPTQTLTLTCTFSGFSLSTYGMGVGWIRQPPGKALEWLANIWWDDDKYYNPSLKNRLTISKDTSKNQVVLTMTNMDPVDTATYYCARIESIGTTYSFDYWGQGTMVTVSSASTKGPSVFPLAPSSKSTSGGTAALGCLVKDYFPEPVTVSWNSGALTSGVHTFPAVLQSSGLYSLSSVVTVPSSSLGTQTYICNVNHKPSNTKVDKKVEPKSCDKTHTCPPCPAPEAAGGPSVFLFPPKPKDTLMISRTPEVTCVVVDVSHEDPEVKFNWYVDGVEVHNAKTKPREEQYNSTYRVVSVLTVLHQDWLNGKEYKCKVSNKALPAPIEKTISKAKGQPREPQVYTLPPSREEMTKNQVSLTCLVKGFYPSDIAVEWESNGQPENNYKTTPPVLDSDGSFFLYSKLTVDKSRWQQGNVFSCSVMHEALHNAYTQKSLSLSPGK light: DTVLTQSPATLSLSPGERATLSCRASESVSTHMHWYQQKPGQAPRLLIYGASNLESGVPARFSGSGSGTDFTLTISSLEPEDFAVYFCQQSWNDPFTFGQGTKLEIKRGGSGGGGSGGEFVLTQSPGTLSLSPGERATLSCERSSGDIGDSYVSWYQQKPGQAPRLVIYADDQRPSGIPDRFSGSGSGTDFTLTISRLEPEDFAVYYCQSYDINIDIVFGGGTKVEIKRTVAAPSVFIFPPSDEQLKSGTASVVCLLNNFYPREAKVQWKVDNALQSGNSQESVTEQDSKDSTYSLSSTLTLSKADYEKHKVYACEVTHQGLSSPVTKSFNRGEC
3 | – | 0.0056 | 3.5e+07 | – | – | – | – | 26 | CODV009 (bispecific antibody, human IgG1, kappa, L234A L235A, Anti-human VEGF-A/anti-human PDGF-BB cross-over DVD-Ig (CO-DVD-Ig); also called PR-1571821) heavy: EVQLVQSGSELKKPGASVKVSCKASGYTFTNYGMYWVRQAPGQGLEWMGWINTETGKPTYADDFKGRFVFSLDTSVSTAYLQISSLKAEDTAVYYCARTNYYYRSYIFYFDYWGQGTMVTVSSGEVTLRESGPALVKPTQTLTLTCTFSGFSLSTYGMGVGWIRQPPGKALEWLANIWWDDDKYYNPSLKNRLTISKDTSKNQVVLTMTNMDPVDTATYYCARIESIGTTYSFDYWGQGTMVTVSSGGASTKGPSVFPLAPSSKSTSGGTAALGCLVKDYFPEPVTVSWNSGALTSGVHTFPAVLQSSGLYSLSSVVTVPSSSLGTQTYICNVNHKPSNTKVDKKVEPKSCDKTHTCPPCPAPEAAGGPSVFLFPPKPKDTLMISRTPEVTCVVVDVSHEDPEVKFNWYVDGVEVHNAKTKPREEQYNSTYRVVSVLTVLHQDWLNGKEYKCKVSNKALPAPIEKTISKAKGQPREPQVYTLPPSREEMTKNQVSLTCLVKGFYPSDIAVEWESNGQPENNYKTTPPVLDSDGSFFLYSKLTVDKSRWQQGNVFSCSVMHEALHNAYTQKSLSLSPGK light: EFVLTQSPGTLSLSPGERATLSCERSSGDIGDSYVSWYQQKPGQAPRLVIYADDQRPSGIPDRFSGSGSGTDFTLTISRLEPEDFAVYYCQSYDINIDIVFGGGTKVEIKGGGSGGGDTVLTQSPATLSLSPGERATLSCRASESVSTHMHWYQQKPGQAPRLLIYGASNLESGVPARFSGSGSGTDFTLTISSLEPEDFAVYFCQQSWNDPFTFGQGTKLEIKGGGSGRTVAAPSVFIFPPSDEQLKSGTASVVCLLNNFYPREAKVQWKVDNALQSGNSQESVTEQDSKDSTYSLSSTLTLSKADYEKHKVYACEVTHQGLSSPVTKSFNRGEC
4 | no binding | 0.0097 | 2.2e+07 | – | – | – | – | – | CODV006 (bispecific antibody, human IgG1, kappa, L234A L235A, Anti-human VEGF-A/anti-human PDGF-BB cross-over DVD-Ig (CO-DVD-Ig); also called PR-1565084) heavy: not shown light: DTQLTQSPSSLSASVGDRVTISCRASESVSTHMHWYQQKPGKAPKLLIYGASNLESGVPSRFSGSGSGTDFTLTISSLQPEDFATYFCQQSWNDPFTFGQGTKVEIKGGGSGGGDFQLTQSPSSLSASVGDRVTITCERSSGDIGDTYVSWYQQKPGKAPKNVIYGNDQRPSGVPSRFSGSGSGNSATLTISSLQPEDFATYFCQSYDSDIDIVFGQGTKVEIKGGGSGRTVAAPSVFIFPPSDEQLKSGTASVVCLLNNFYPREAKVQWKVDNALQSGNSQESVTEQDSKDSTYSLSSTLTLSKADYEKHKVYACEVTHQGLSSPVTKSFNRGEC
5 | no binding | 0.0074 | 1.7e+07 | – | – | – | – | – | CODV008 (bispecific antibody, human IgG1, kappa, L234A L235A, Anti-human VEGF-A/anti-human PDGF-BB cross-over DVD-Ig (CO-DVD-Ig); also called PR-1565086) heavy: not shown light: DTQLTQSPSSLSASVGDRVTISCRASESVSTHMHWYQQKPGKAPKLLIYGASNLESGVPSRFSGSGSGTDFTLTISSLQPEDFATYFCQQSWNDPFTFGQGTKVEIKGGGSGGGDFQLTQSPSSLSASVGDRVTITCERSSGDIGDSYVSWYQQKPGKAPKNVIYADDQRPSGVPSRFSGSGSGNSASLTISSLQPEDFATYFCQSYDINIDIVFGQGTKVEIKGGGSGRTVAAPSVFIFPPSDEQLKSGTASVVCLLNNFYPREAKVQWKVDNALQSGNSQESVTEQDSKDSTYSLSSTLTLSKADYEKHKVYACEVTHQGLSSPVTKSFNRGEC
6 | no binding | 0.087 | 1e+07 | – | – | – | – | – | CODV004 (bispecific antibody, human IgG1, kappa, L234A L235A, Anti-human VEGF-A/anti-human PDGF-BB cross-over DVD-Ig (CO-DVD-Ig); also called PR-1565051) heavy: not shown light: DIQMTQSPSSLSASVGDRVTITCSASQDISNYLNWYQQKPGKAPKVLIYFTSSLHSGVPSRFSGSGSGTDFTLTISSLQPEDFATYYCQQYSTVPWTFGQGTKVEIKGGGSGGGDFQLTQSPSSLSASVGDRVTITCERSSGDIGDSYVSWYQQKPGKAPKNVIYADDQRPSGVPSRFSGSGSGNSASLTISSLQPEDFATYFCQSYDINIDIVFGQGTKVEIKGGGSGRTVAAPSVFIFPPSDEQLKSGTASVVCLLNNFYPREAKVQWKVDNALQSGNSQESVTEQDSKDSTYSLSSTLTLSKADYEKHKVYACEVTHQGLSSPVTKSFNRGEC
7 | – | 0.011 | 1.2e+07 | – | – | – | – | 35 | CODV005 (bispecific antibody, human IgG1, kappa, L234A L235A, Anti-human VEGF-A/anti-human PDGF-BB cross-over DVD-Ig (CO-DVD-Ig); also called PR-1565083) heavy: not shown light: DFQLTQSPSSLSASVGDRVTITCERSSGDIGDTYVSWYQQKPGKAPKNVIYGNDQRPSGVPSRFSGSGSGNSATLTISSLQPEDFATYFCQSYDSDIDIVFGQGTKVEIKGGGSGGGDTQLTQSPSSLSASVGDRVTISCRASESVSTHMHWYQQKPGKAPKLLIYGASNLESGVPSRFSGSGSGTDFTLTISSLQPEDFATYFCQQSWNDPFTFGQGTKVEIKGGGSGRTVAAPSVFIFPPSDEQLKSGTASVVCLLNNFYPREAKVQWKVDNALQSGNSQESVTEQDSKDSTYSLSSTLTLSKADYEKHKVYACEVTHQGLSSPVTKSFNRGEC
8 | – | 0.0073 | 2.9e+07 | – | – | – | – | 22 | CODV007 (bispecific antibody, human IgG1, kappa, L234A L235A, Anti-human VEGF-A/anti-human PDGF-BB cross-over DVD-Ig (CO-DVD-Ig); also called PR-1565085) heavy: not shown light: DFQLTQSPSSLSASVGDRVTITCERSSGDIGDSYVSWYQQKPGKAPKNVIYADDQRPSGVPSRFSGSGSGNSASLTISSLQPEDFATYFCQSYDINIDIVFGQGTKVEIKGGGSGGGDTQLTQSPSSLSASVGDRVTISCRASESVSTHMHWYQQKPGKAPKLLIYGASNLESGVPSRFSGSGSGTDFTLTISSLQPEDFATYFCQQSWNDPFTFGQGTKVEIKGGGSGRTVAAPSVFIFPPSDEQLKSGTASVVCLLNNFYPREAKVQWKVDNALQSGNSQESVTEQDSKDSTYSLSSTLTLSKADYEKHKVYACEVTHQGLSSPVTKSFNRGEC
